Biological target: endogenous NIK of mouse embryonic fibroblast cells (mouse) (UniProt Q9WUL6)
Assay: cell-based or functional assay

endogenous NIK of mouse embryonic fibroblast cells (mouse), sequence (Q9WUL6 whole entry): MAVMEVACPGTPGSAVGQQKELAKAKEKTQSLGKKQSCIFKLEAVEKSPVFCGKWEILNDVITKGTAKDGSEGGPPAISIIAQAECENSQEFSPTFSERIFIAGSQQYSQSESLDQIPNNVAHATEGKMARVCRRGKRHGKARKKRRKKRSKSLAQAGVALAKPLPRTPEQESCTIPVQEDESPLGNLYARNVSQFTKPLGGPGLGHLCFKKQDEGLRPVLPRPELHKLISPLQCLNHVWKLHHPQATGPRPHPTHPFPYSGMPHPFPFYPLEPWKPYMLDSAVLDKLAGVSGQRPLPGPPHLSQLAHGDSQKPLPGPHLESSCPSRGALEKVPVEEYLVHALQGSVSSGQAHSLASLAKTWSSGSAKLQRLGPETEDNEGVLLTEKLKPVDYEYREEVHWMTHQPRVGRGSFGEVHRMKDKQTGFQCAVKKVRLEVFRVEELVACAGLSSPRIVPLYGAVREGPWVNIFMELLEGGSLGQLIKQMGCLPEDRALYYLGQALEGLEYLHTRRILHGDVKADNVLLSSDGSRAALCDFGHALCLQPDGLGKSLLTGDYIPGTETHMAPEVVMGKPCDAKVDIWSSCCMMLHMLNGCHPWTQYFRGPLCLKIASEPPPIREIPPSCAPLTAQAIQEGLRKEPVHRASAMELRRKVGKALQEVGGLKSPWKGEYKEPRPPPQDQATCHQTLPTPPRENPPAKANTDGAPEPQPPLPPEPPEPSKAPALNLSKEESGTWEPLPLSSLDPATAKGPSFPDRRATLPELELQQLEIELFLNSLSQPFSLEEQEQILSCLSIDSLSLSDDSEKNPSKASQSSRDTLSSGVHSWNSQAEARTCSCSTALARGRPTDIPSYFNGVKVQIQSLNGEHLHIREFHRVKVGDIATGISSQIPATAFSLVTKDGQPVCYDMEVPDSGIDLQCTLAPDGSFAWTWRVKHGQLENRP

NF-κB activation by LTβ, luciferase reporter assay, mouse embryonic fibroblast cell line	decrease in NF-κB activation by LTβ, luciferase reporter assay, mouse embryonic fibroblast cell line	Substance
2.5 fold		GST fusion protein with the intracellular domain of cγc (pGSTICcγc) (from UniProt P31785 284-369)
	50%	GST-41MDD fusion protein (from UniProt P31785 329-369)

Source: patent publication US20050272633A1
